Data on one molecule can be found in paper doi:10.1101/805184 (bioRxiv, 2019).

Common to all, as to experiment: cryo-EM structure
In one data set the target is T1, Swi1 (S. cerevisiae, UniProt P09547 1-1314).
T1 sequence: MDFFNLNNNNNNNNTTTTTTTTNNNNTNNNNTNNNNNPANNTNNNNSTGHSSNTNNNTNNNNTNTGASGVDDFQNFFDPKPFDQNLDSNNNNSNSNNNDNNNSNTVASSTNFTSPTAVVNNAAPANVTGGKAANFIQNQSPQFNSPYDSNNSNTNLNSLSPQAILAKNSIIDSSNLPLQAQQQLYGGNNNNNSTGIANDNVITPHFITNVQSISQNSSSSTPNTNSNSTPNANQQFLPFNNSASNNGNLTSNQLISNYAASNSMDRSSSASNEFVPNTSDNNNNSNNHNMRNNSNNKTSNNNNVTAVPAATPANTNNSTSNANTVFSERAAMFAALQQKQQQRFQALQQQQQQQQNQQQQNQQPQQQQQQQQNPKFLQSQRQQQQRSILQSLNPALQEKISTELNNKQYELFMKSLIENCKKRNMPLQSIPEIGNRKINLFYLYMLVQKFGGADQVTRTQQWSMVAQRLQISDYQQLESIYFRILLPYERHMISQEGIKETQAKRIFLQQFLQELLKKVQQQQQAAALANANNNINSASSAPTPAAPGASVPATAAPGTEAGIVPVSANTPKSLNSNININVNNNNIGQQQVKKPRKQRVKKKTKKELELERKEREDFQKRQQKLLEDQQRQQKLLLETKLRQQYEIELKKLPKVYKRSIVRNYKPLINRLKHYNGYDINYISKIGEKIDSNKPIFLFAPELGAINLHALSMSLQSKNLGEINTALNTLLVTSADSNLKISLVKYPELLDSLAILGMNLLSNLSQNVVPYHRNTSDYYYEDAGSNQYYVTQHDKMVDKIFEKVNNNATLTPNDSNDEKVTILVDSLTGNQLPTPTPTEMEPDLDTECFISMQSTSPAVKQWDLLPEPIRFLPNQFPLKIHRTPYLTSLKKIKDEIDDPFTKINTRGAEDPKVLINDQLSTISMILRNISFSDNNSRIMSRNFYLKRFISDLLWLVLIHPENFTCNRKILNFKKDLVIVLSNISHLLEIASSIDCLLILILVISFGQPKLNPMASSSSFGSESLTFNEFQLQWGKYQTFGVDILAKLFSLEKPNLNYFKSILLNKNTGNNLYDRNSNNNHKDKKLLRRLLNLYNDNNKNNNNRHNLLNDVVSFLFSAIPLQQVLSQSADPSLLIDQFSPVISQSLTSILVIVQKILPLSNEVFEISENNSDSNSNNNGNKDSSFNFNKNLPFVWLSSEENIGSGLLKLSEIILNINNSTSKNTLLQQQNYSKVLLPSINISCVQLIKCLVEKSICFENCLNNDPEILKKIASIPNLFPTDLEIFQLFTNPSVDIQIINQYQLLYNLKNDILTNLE

The data set “cryo-EM structure” concerns the molecule itself.
A further data set addresses Snf5 (S. cerevisiae, UniProt P18480 1-905).
The next data set concerns the target Snf2 (S. cerevisiae, UniProt P22082 1-1703).

Snf2, sequence (P22082 whole entry): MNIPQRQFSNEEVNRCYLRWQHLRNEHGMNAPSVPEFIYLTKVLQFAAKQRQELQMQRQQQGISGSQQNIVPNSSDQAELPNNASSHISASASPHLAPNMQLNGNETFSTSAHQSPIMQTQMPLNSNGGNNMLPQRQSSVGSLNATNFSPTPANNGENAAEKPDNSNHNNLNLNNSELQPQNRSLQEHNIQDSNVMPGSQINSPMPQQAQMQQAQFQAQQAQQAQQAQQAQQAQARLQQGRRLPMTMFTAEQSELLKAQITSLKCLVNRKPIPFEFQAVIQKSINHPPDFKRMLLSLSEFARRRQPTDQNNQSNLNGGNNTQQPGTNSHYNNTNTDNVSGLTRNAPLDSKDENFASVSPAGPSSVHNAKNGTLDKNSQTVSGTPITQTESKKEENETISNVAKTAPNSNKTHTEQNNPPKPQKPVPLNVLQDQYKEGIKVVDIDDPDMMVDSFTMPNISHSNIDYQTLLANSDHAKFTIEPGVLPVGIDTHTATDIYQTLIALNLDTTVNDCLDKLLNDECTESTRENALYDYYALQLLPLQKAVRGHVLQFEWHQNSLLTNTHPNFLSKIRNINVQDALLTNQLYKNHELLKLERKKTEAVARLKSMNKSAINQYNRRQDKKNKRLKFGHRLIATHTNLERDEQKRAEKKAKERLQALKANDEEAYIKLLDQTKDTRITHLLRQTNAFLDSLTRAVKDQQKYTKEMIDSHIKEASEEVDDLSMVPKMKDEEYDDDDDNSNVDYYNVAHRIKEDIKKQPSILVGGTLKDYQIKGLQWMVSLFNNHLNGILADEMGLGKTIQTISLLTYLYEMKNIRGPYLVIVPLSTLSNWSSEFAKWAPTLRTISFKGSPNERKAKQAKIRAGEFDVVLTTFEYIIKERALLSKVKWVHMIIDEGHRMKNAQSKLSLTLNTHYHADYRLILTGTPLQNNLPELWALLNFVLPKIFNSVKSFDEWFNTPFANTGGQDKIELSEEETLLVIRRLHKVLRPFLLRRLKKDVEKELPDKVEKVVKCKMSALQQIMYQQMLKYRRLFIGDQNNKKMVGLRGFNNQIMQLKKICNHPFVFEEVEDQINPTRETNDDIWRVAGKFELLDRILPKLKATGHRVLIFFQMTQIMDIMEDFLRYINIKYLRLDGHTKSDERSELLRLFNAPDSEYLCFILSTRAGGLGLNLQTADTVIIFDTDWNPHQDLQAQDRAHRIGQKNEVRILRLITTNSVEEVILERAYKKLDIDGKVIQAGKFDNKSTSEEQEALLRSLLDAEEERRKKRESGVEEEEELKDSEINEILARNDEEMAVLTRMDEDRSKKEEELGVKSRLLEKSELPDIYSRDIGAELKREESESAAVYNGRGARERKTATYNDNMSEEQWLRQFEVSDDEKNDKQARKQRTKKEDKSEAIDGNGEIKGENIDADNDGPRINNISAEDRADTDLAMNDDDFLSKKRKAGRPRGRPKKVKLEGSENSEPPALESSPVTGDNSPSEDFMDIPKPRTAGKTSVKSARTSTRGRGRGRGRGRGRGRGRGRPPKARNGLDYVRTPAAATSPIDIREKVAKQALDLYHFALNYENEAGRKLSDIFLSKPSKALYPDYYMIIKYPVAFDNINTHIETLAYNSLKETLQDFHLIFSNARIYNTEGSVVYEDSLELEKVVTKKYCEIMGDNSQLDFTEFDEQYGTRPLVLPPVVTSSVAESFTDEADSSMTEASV

B1: Swi3 (natural protein)
chain: MENTLGEGSTVNASVDVDQHGNDNNSDSNANAAVAGVANTDTAGEESQQQDESLKDEATVPNTRDAESEAITVTAKQQPTMQANKLDSQETPSTEESRAQNVFGQDNEDSDNLFGETESSVSNNEANTPSIPTNPVDNENNKPAIKEDSTIQDSNGDVKNMEDVKIQKEEEPENNTVIEGVKEESQPDENTKEMDEVEEDDEDDDQPMISPDNSIFGDTKSESKQLGNTSSVANTPSEIPDAHKAEQEDIIEKTESVDKKVDSGEERNEQEREIMNDHSKSANPKKTTITRVEPETFEIPQAHEIVIPSYSKWFNLEKIHSIEVQSLPEFFTNRIPSKTPEVYMRYRNFMVNSYRLNPNEYFSVTTARRNVSGDAAALFRLHKFLTKWGLINYQVDSKLLPKNIEPPLTSQYSTRHDAPRGLFPFESYKPSVQLPDMAKLKKMMNTSDSESTLYKYLKESKRKYDEITHPPSTTDDENGDKNDNGGKMNNEVSTSTSMTGDANLLEEGETSRPLKKVKILEQIDENWSKEDLQKLLKGIQEFGADWYKVAKNVGNKSPEQCILRFLQLPIEDKFLYGDGNGKGDNDNGLGPLKYAPHLPFSKSENPVLSTIAFLVGLVNPKTVQSMTQRAIQSAESIKSQKEEISDQKPIEHIKEGSEIAISSLGYRSHIFATNEERQMNFLTNELIRLQMEKLDAKLNHLKKLEKFMELERKTLERQQENLLIQRLNFNQNSSKIVNVLSKCLNLISDSNINNSSVAEKEEIRSQIDHFKSMLSKPETLSIGKNPFNKPNIETGENHNGQSISNENDVKPISIEAPQFYRYWSA
B1: the binding result in the data set with Swi1, in the data set with Snf5 and with Snf2 was “binds” throughout. For the same molecule, the “stoichiometry N” value in the data set “cryo-EM structure” is 2.

As a reminder, the stoichiometry N is the number of molecules, sites or subunits per partner or assembly.
